Reference: PMC4410877 (Biochemistry, 2009)
Values belong to the molecule of their own block, whether it stands above or below them. Ends that are not written are not given here.

What was measured:
[1] = 10 °C; cited from earlier work
[2] = cited from earlier work
[3] = system: actin; settings: literature statement, no reference printed at this sentence; cited from earlier work
[4] = system: cofilin; settings: cited from earlier work
[5] = biological target: T1, αTM1b_(1-19)Zip (1bNTD), unlabeled synthetic peptide (rat | yeast); experiment: circular dichroism titration
T1 chain: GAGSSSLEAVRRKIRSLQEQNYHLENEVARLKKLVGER

Molecule: 9aCTD: residues 251-284 of rat striated α-tropomyosin encoded by exon 8 and exon 9a with GCG at the N-terminus (GCGKSIDDLEDELYAQKLKYKAISEELDHALNDMTSI; not fully specified; UniProt P04692 251-284, looked up, fragment)
helical content of 9aCTD [1]: greater than 75% | TM of unfolding of 9aCTD [2]: ~ 25 °C

Molecule: Cofilin: actin filament binding and severing protein
affinity of cofilin for the actin filament [3]: high affinity

Molecule: Tropomyosin
inhibition of cofilin binding and severing [4]: competitive inhibitor

Kd [5]: < 500 nM | stoichiometry N [5]: 0.94 ± 0.03 molar ratio
Molecule: GCGGSIDDLEEKVAHAKEENLSMHQMLHQTLLELNNM (also: disulfide cross-link between two chains through Cys2 (dimer)) [α-TM9d_(252-284) (9dCTD), disulfide cross-linked]
